Source: the nanobody polyreactivity screen of Harvey et al. (2022)

Test: yeast display, Sf9 membrane polyspecificity reagent, FACS + sequencing; frameworks hold sequencing errors
In short: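 Using colony PCR, genes from sorted yeast display clones were amplified, then sequenced on MiSeq at 2 × 250 and filtered by CDR length. The clones had been stained with 10% biotinylated, detergent-solubilized Sf9 membrane reagent for 1 hour at 4 °C and sorted by FACS into low and high (top ~1%) gates on anti-HA and streptavidin fluorescence. Polyreactivity labels come from the gate of origin.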

QVQLVESGGGLVQAGGSLRLSCAASGRIFKTNAMGWYRQAPGKERELVAAISRSGSRTSYADSVKGRFTISRDNAKNTVYLQMNSLKPEDTAVYYCATRGLYWKVGYWGQGTQVTVSS
polyreactivity (PSR sort gate): high polyreactivity

QVQLVESGGGLVQAGGSLRLSCAASGRIFKTYAMGWYRPAPGTERELVAGISWRGGSTYYADSVKGRFTISRDNAKNTVYLQMNSLKPEDTAVYYCAADDTYTRYDYWGQGTQVTVSS
polyreactivity (PSR sort gate): high polyreactivity

QVQLVESGGGLVQAGGSLRLSCAASGRIFKTYAMGWYRQAPGKERELVAGISWRGGSTYYADSVKGRFTISRDNAKNTVYLQMNSLKPEDTAVYYCAADDTYTRYDYWGQGTQVTVSS
polyreactivity (PSR sort gate): high polyreactivity

QVQLVESGGGLVQAGGSLRLSCAASGRIFKVYAMGWYIQAPGKERELVAVISRGGSTYYADSVKGRFTISRDNAKNTVYLQMNSLKPEDTAVYYCAARLTYTGGQGAYDYWGQGTQVTVSS
polyreactivity (PSR sort gate): high polyreactivity

QVQLVESGGGLVQAGGSLRLSCAASGRIFKVYAMGWYRQAPGKERDLVAVISRGGSTYYADSVKGRFTISRDNAKNTVYLQMKSLKPEDTAVYYCAARLTYTGGQGAYDYWGQGTQVTVSS
polyreactivity (PSR sort gate): high polyreactivity

QVQLVESGGGLVQAGGSLRLSCAASGRIFKVYAMGWYRQAPGKERELVAAITWSGVSTYADSVKGRFTISRDNAKNTVYLQMNSLKPEDTAVYYCAAYLRSPGDRQGYYYWGQGTQVTVSS
polyreactivity (PSR sort gate): high polyreactivity

QVQLVESGGGLVQAGGSLRLSCAASGRIFKWYAMGWYRQAPGKERELVAAITWRGGSTNYADSVKGRFTISRDNAKNTVYLQMNSLKPEDTAVYYCAVGTVFLTYRGYEYWGQGTQVTVSS
polyreactivity (PSR sort gate): high polyreactivity

QVQLVESGGGLVQAGGSLRLSCAASGRIFKYNAMGWSIQAPGKERELVAAISSGGSTKYADSVKGRFTISRDNAKNTVYLQMNSLKPEDTAVYYCNAVYTPYRRSFYYWGHGTQVTVSS
polyreactivity (PSR sort gate): high polyreactivity

QVQLVESGGGLVQAGGSLRLSCAASGRIFKYNAMGWYIQAPGKERELVAVITSGGSTYYADSVKGRFTISRDNEKNTVYLQMNSLKPDDTEVYYCAKKYYKVHKFDYWGQGTQVTVSS
polyreactivity (PSR sort gate): low polyreactivity

QVQLVESGGGLVQAGGSLRLSCAASGRIFKYNAMGWYRQAPGKERELVAAISSSGGSTYYADSVKGRFTISRDNAKNTVYLQMNSLKPEDTAVYYCAARYAPTLSVYRFYYWGQGTQVTVSS
polyreactivity (PSR sort gate): high polyreactivity

QVQLVESGGGLVQAGGSLRLSCAASGRIFKYYAKGWYIQAPGKERELVAAINRDGGRTYYADSVKGRFTISRDNAKNTVYLQMNSLKPEDTAVYYCAASYGYVYTTSLDYWGQGTQVTVSS
polyreactivity (PSR sort gate): low polyreactivity

QVQLVESGGGLVQAGGSLRLSCAASGRIFKYYAMGWYRQAPGKERELVAAISGTGGGTYYADSVKGRFTISRDNAKNTVYLQMNSLKPEDTAVYYCAALHQAYRGFDYWGQGTQVSVSS
polyreactivity (PSR sort gate): high polyreactivity

QVQLVESGGGLVQAGGSLRLSCAASGRIFKYYAMGWYRQAPGKERELVAAISWTGVSTYYADSVKGRFTISRDNAKNTVYLQMNSLKPEDTAVYYCNAQSYRYPKDDYWGQGTQVTVSS
polyreactivity (PSR sort gate): high polyreactivity

QVQLVESGGGLVQAGGSLRLSCAASGRIFKYYDMGWYRQAPGKERELVARISSGGGRTYYADSVKGRFKISRDNAKNTVYLQMNSLKPEDTAVYYCAADPPASYHTWYGYWGQGTQVTVSS
polyreactivity (PSR sort gate): high polyreactivity

QVQLVESGGGLVQAGGSLRLSCAASGRIFKYYVMGWYRQAPGKERELVAGISSSGVSTYYADSVKGRFTISRDNAKNTVYLQMNSLKPEDTAVYYCNAKSRTGYGRGDYWGQGTQVTVSS
polyreactivity (PSR sort gate): high polyreactivity

QVQLVESGGGLVQAGGSLRLSCAASGRIFLGNAMGWYRQAPGKDRELVAAITNGGGSTYYADSVKGRFTISRDNAKNTVYLQMNSLKPEDTAVYYCARGYKKSVQRFEYWGQGTQVTVSS
polyreactivity (PSR sort gate): high polyreactivity

QVQLVESGGGLVQAGGSLRLSCAASGRIFLGNAMGWYRQAPGKERELVAAITNGGGSTYYADSVKGRFTISRDNAKNTVYLQMNSLKPEDTAVYYCAAPVRQSSYTRYDSWGQGTQVTVSS
polyreactivity (PSR sort gate): high polyreactivity

QVQLVESGGGLVQAGGSLRLSCAASGRIFLGNAMGWYRQAPGKERELVAAITNGGGSTYYADSVKGRFTISRDTAKNTVYLQMNSLKPEDTAVYYCARGYKKSVQRFEYWGQGTQVTVSS
polyreactivity (PSR sort gate): high polyreactivity

QVQLVESGGGLVQAGGSLRLSCAASGRIFLGYTMGWYRQAPGKERELVAAISYSGGSTYYADSVKGRFTISRDYAKNTVYFQMNSLKPEDTAVYYCNKVYSIRGYWGQGTQVTVSS
polyreactivity (PSR sort gate): high polyreactivity

QVQLVESGGGLVQAGGSLRLSCAASGRIFLGYTMGWYRQAPGKERELVASMTWSGGSTYYADSVKGRFTISRDKAKNTVYVQMNSLKPEDTAVYYCIAVFWVARGRYDYWGQGTQVTVSS
polyreactivity (PSR sort gate): high polyreactivity

QVQLVESGGGLVQAGGSLRLSCAASGRIFLHNAMGWYRQAPGKERELVAAITSGGNTNYADSVKGRFTISRDNAKNTVYLQMNSLKPEDTAVYYCATVGKVHHRLVAMDYWGQGTQVTVSS
polyreactivity (PSR sort gate): low polyreactivity

QVQLVESGGGLVQAGGSLRLSCAASGRIFLLNAMGWYRQAPGKERELVARISSGRTYYADSVKGRFTISRDNAKNTVFLQMISLKPEDTAVYYCNATVSSSKFRYFYVNPYDYWGQGTQVTVSS
polyreactivity (PSR sort gate): low polyreactivity

QVQLVESGGGLVQAGGSLRLSCAASGRIFLNYDMGWYRQAPGKERELVADISISGSTDYADSVKGRFTISRDNAKNTVYLQMNSLKPEDTAVYYCATSFYVSDYYVPYEMGYWGQGTQVTVSS
polyreactivity (PSR sort gate): low polyreactivity

QVQLVESGGGLVQAGGSLRLSCAASGRIFLQNAMGWYRQAPWKERELVASISSSGGTTYYADSVKGRFTISRDNAKNTVYLQMNSLKPEDTAVYYCAADYGHYSTPMDYWGQGTQVTVSS
polyreactivity (PSR sort gate): low polyreactivity

QVQLVESGGGLVQAGGSLRLSCAASGRIFLRNAMGWYRQAPGKERELVATITSRGGSTYYADSVRGRFTISRDNAKNTVYLQMNSLKPEDTAVYYCAAKVAWGHWRGYDYWGQGTQVTVSS
polyreactivity (PSR sort gate): low polyreactivity

QVQLVESGGGLVQAGGSLRLSCAASGRIFLSNAMGWYIQAPGKEREFVAAISWRGGSTYYADSVKGRFTISRDNAKNTVYLQMNSLKPEDTAVYYCAVDVRYYYGRSYDYWGQGTQVTVSS
polyreactivity (PSR sort gate): high polyreactivity

QVQLVESGGGLVQAGGSLRLSCAASGRIFLSYAMGVYRQAPGKERELVAGITGTGGRTYYADSVKGRFTISRDNAKNTVYLLMNSLIPEDTAVSYCAAQRRDNIDPKHYYWGQGTQVTVSS
polyreactivity (PSR sort gate): low polyreactivity

QVQLVESGGGLVQAGGSLRLSCAASGRIFLSYTMGWYRQAPGKERELVAAITSGGSTYYADSVKGRFTISRDNAKNTVYLQMNSLKPEDTAVYYCATDYGYSWYDYWGQGTQVTVSS
polyreactivity (PSR sort gate): low polyreactivity

QVQLVESGGGLVQAGGSLRLSCAASGRIFLTNTMGWYRQAPGKERELVAGISRGGRTYYADSVKGRFTISRDNAKNTVYLQMNSLKPEDTAVYYCNARLRHSQYAYYYWGQGTQVTVSS
polyreactivity (PSR sort gate): high polyreactivity

QVQLVESGGGLVQAGGSLRLSCAASGRIFLVNTMGWYRQAPGKERELVATITFSVVRTYYADSVKGRFTISRDNAKNSVYLQMNSLKPEVTAVYYCAKQHLVSVPEMYYWGQGTQVTVSS
polyreactivity (PSR sort gate): low polyreactivity

QVQLVESGGGLVQAGGSLRLSCAASGRIFLVYAMGWYRQAPGKERELVAAITKRGGSTYYADSVKGRFTISRDNAKNTVYLQMNSLKPEDTAVYYCAADGYTRGYDYWGQGTQVTVSS
polyreactivity (PSR sort gate): high polyreactivity

QVQLVESGGGLVQAGGSLRLSCAASGRIFLYAMGWYRQAPGKERELVAAINRGGSTYYADSVKGRFTISRDNAKNTVYLEMNSLKPEDTAVYYCAAKRLTCRQHDYWGQGTQVTVSS
polyreactivity (PSR sort gate): high polyreactivity

QVQLVESGGGLVQAGGSLRLSCAASGRIFLYYAMGWYRQAPGKERELVAAISRRGASTYYADSVKGRFTISRDNAKNTVYLQMNSLKPEDTAVYYCATVPGKSGDYWGQGTQVTVSS
polyreactivity (PSR sort gate): high polyreactivity

QVQLVESGGGLVQAGGSLRLSCAASGRIFLYYAMGWYRQAPGKERELVAAITWSGGSTYYADSVKGRFTISRDNAKNTVYLQMNSLKPEDTAVYYCAADYLYGQTIYQVPSHYYYWGQGTQVTVSS
polyreactivity (PSR sort gate): low polyreactivity

QVQLVESGGGLVQAGGSLRLSCAASGRIFLYYNMGWYRQAPGKERELVADITWRGGSTYYADSVKGRFTISRDNAKNTVYLQMNSLKPEDTAVYYCNAVSVSSKRSDYWGQGTQVTVSS
polyreactivity (PSR sort gate): low polyreactivity

QVQLVESGGGLVQAGGSLRLSCAASGRIFNGNALGWYRQAPGNERELVAAISSGGRTYYADSVKGRFTISRDNAKNTVYLQMNSLKPEDTAVYYCNARGYSGRVIPEYYYWGQGTQVTVSS
polyreactivity (PSR sort gate): high polyreactivity

QVQLVESGGGLVQAGGSLRLSCAASGRIFNGNAMGWYRQAPGKESELVAAISTSGGRTYYADSVKGRFTISRDNAKNTVYLQMNSLKPEDTAVYYCAARYFRRDYIDYDLWGQGTQVTVSS
polyreactivity (PSR sort gate): low polyreactivity

QVQLVESGGGLVQAGGSLRLSCAASGRIFNGYAMGWYRQAPGKERELVAAISKSGTRTYYADSVKGRFTISRDNAKNTVYLQMTSLKPEDTAVYYCNARVYRYDTYNEYYYWGQGTQVTVSS
polyreactivity (PSR sort gate): high polyreactivity

QVQLVESGGGLVQAGGSLRLSCAASGRIFNIYAMGWYRQAPGKERELVAAIRWNGGSTYYADSVKGRFTISRDNAKYTVYLQMYSLKPEDSAVYYCAAARRRRFYDYYNAWYDVDYWGQGTQVSVSS
polyreactivity (PSR sort gate): low polyreactivity

QVQLVESGGGLVQAGGSLRLSCAASGRIFNKNAMGWYRQAPGKERELVAAISWSGTSTYYADSVKGRFTISRDTAKNTVYLQMHSLKPEDTAVYYCAAADFYYTGADDYWGQGTQVTVSS
polyreactivity (PSR sort gate): high polyreactivity

QVQLVESGGGLVQAGGSLRLSCAASGRIFNKNAMGWYRQAPGKERELVAAITYSGGSTYYADSVKGRFTISRDNAKNTVYLQMNSLKPEDTAVYYSARDLYYVYSFAPYRYEYWGQGTQVTVSS
polyreactivity (PSR sort gate): low polyreactivity

QVQLVESGGGLVQAGGSLRLSCAASGRIFNPNAMGWYRQAPGKERELVAAITSGDSTNYADSVKGRFTISRDNAKNTVYLQMNSLKPEDTAVYYCAAGPSKRPPWLRQGGYDYWGQGTQVTVSS
polyreactivity (PSR sort gate): low polyreactivity

QVQLVESGGGLVQAGGSLRLSCAASGRIFNPYAMGWYRQAPWKERELVAAIRRSGVDTYYADSVKGRFTNSRDNAKNTVYFQMNSLKPEDTAVYYCNAVYKRIGYSEFDYWGQGTQVTVSS
polyreactivity (PSR sort gate): low polyreactivity
